Measured values taken from PMC10615991.

Target: Recombinant angiotensin-converting enzyme-2 (ACE2) (UniProt Q9BYF1)
Experiment: LSPR (localized surface plasmon resonance)

Sequence of Recombinant angiotensin-converting enzyme-2 (ACE2) (Q9BYF1 18-805): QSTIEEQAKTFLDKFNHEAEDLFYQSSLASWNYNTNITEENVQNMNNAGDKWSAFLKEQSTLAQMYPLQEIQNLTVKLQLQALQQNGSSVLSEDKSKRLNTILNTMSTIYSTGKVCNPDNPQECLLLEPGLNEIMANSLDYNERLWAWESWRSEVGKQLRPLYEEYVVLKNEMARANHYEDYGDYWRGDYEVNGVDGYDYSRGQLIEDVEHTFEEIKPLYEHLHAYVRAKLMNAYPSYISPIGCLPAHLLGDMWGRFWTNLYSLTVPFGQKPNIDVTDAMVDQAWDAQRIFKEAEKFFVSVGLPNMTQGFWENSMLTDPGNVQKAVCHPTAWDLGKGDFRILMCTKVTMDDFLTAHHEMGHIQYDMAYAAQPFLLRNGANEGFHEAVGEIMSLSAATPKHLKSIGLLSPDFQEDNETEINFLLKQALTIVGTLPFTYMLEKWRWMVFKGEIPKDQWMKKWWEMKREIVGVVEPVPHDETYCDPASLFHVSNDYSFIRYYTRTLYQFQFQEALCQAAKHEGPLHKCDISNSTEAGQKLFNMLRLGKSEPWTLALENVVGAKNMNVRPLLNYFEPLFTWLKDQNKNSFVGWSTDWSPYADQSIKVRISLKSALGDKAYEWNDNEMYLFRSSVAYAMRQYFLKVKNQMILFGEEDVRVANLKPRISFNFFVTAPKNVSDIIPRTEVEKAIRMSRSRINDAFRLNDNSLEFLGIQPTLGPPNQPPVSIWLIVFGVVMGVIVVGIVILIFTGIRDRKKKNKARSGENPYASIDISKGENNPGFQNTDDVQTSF

What does the source list for “SARS-CoV S1 protein (from UniProt P59594 14-667) (domain or fragment)”?
LOD: 0.01 ng/mL; fold wavelength shift on Au@R/Li against Au@R, at 100 ng/ml: 1.78 fold; fold wavelength shift on Au@R/Li against Au@R, at 1000 ng/ml: 4.51 fold; fold wavelength shift on Au@R/Li against Au@R, at 10,000 ng/ml: 1.95 fold
